Test results published in publication PMC10540216, “Activity Guided Azide-methyllysine Photo-trapping for Substrate Profiling of Lysine Demethylases” (Journal of the American Chemical Society, 2023).

B1: CYFP1_HUMAN (protein, UniProt Q7L576 1-1253, looked up)
Cytoplasmic FMR1-interacting …: MAAQVTLEDALSNVDLLEELPLPDQQPCIEPPPSSLLYQPNFNTNFEDRNAFVTGIARYIEQATVHSSMNEMLEEGQEYAVMLYTWRSCSRAIPQVKCNEQPNRVEIYEKTVEVLEPEVTKLMNFMYFQRNAIERFCGEVRRLCHAERRKDFVSEAYLITLGKFINMFAVLDELKNMKCSVKNDHSAYKRAAQFLRKMADPQSIQESQNLSMFLANHNKITQSLQQQLEVISGYEELLADIVNLCVDYYENRMYLTPSEKHMLLKVMGFGLYLMDGSVSNIYKLDAKKRINLSKIDKYFKQLQVVPLFGDMQIELARYIKTSAHYEENKSRWTCTSSGSSPQYNICEQMIQIREDHMRFISELARYSNSEVVTGSGRQEAQKTDAEYRKLFDLALQGLQLLSQWSAHVMEVYSWKLVHPTDKYSNKDCPDSAEEYERATRYNYTSEEKFALVEVIAMIKGLQVLMGRMESVFNHAIRHTVYAALQDFSQVTLREPLRQAIKKKKNVIQSVLQAIRKTVCDWETGHEPFNDPALRGEKDPKSGFDIKVPRRAVGPSSTQLYMVRTMLESLIADKSGSKKTLRSSLEGPTILDIEKFHRESFFYTHLINFSETLQQCCDLSQLWFREFFLELTMGRRIQFPIEMSMPWILTDHILETKEASMMEYVLYSLDLYNDSAHYALTRFNKQFLYDEIEAEVNLCFDQFVYKLADQIFAYYKVMAGSLLLDKRLRSECKNQGATIHLPPSNRYETLLKQRHVQLLGRSIDLNRLITQRVSAAMYKSLELAIGRFESEDLTSIVELDGLLEINRMTHKLLSRYLTLDGFDAMFREANHNVSAPYGRITLHVFWELNYDFLPNYCYNGSTNRFVRTVLPFSQEFQRDKQPNAQPQYLHGSKALNLAYSSIYGSYRNFVGPPHFQVICRLLGYQGIAVVMEELLKVVKSLLQGTILQYVKTLMEVMPKICRLPRHEYGSPGILEFFHHQLKDIVEYAELKTVCFQNLREVGNAILFCLLIEQSLSLEEVCDLLHAAPFQNILPRVHVKEGERLDAKMKRLESKYAPLHLVPLIERLGTPQQIAIAREGDLLTKERLCCGLSMFEVILTRIRSFLDDPIWRGPLPSNGVMHVDECVEFHRLWSAMQFVYCIPVGTHEFTVEQCFGDGLHWAGCMIIVLLGQQRRFAVLDFCYHLLKVQKHDGKDEIIKNVPLKKMVERIRKFQILNDEIITILDKYLKSGDGEGTPVEHVRCFQPPIHQSLASS
B2: CBPD_HUMAN (protein, UniProt O75976 32-1380, looked up)
Carboxypeptidase D: AHIKKAEATTTTTSAGAEAAEGQFDRYYHEEELESALREAAAAGLPGLARLFSIGRSVEGRPLWVLRLTAGLGSLIPEGDAGPDAAGPDAAGPLLPGRPQVKLVGNMHGDETVSRQVLIYLARELAAGYRRGDPRLVRLLNTTDVYLLPSLNPDGFERAREGDCGFGDGGPSGASGRDNSRGRDLNRSFPDQFSTGEPPALDEVPEVRALIEWIRRNKFVLSGNLHGGSVVASYPFDDSPEHKATGIYSKTSDDEVFKYLAKAYASNHPIMKTGEPHCPGDEDETFKDGITNGAHWYDVEGGMQDYNYVWANCFEITLELSCCKYPPASQLRQEWENNRESLITLIEKVHIGVKGFVKDSITGSGLENATISVAGINHNITTGRFGDFYRLLVPGTYNLTVVLTGYMPLTVTNVVVKEGPATEVDFSLRPTVTSVIPDTTEAVSTASTVAIPNILSGTSSSYQPIQPKDFHHHHFPDMEIFLRRFANEYPNITRLYSLGKSVESRELYVMEISDNPGVHEPGEPEFKYIGNMHGNEVVGRELLLNLIEYLCKNFGTDPEVTDLVHNTRIHLMPSMNPDGYEKSQEGDSISVIGRNNSNNFDLNRNFPDQFVQITDPTQPETIAVMSWMKSYPFVLSANLHGGSLVVNYPFDDDEQGLATYSKSPDDAVFQQIALSYSKENSQMFQGRPCKNMYPNEYFPHGITNGASWYNVPGGMQDWNYLQTNCFEVTIELGCVKYPLEKELPNFWEQNRRSLIQFMKQVHQGVRGFVLDATDGRGILNATISVAEINHPVTTYKTGDYWRLLVPGTYKITASARGYNPVTKNVTVKSEGAIQVNFTLVRSSTDSNNESKKGKGASSSTNDASDPTTKEFETLIKDLSAENGLESLMLRSSSNLALALYRYHSYKDLSEFLRGLVMNYPHITNLTNLGQSTEYRHIWSLEISNKPNVSEPEEPKIRFVAGIHGNAPVGTELLLALAEFLCLNYKKNPAVTQLVDRTRIVIVPSLNPDGRERAQEKDCTSKIGQTNARGKDLDTDFTNNASQPETKAIIENLIQKQDFSLSVALDGGSMLVTYPYDKPVQTVENKETLKHLASLYANNHPSMHMGQPSCPNKSDENIPGGVMRGAEWHSHLGSMKDYSVTYGHCPEITVYTSCCYFPSAARLPSLWADNKRSLLSMLVEVHKGVHGFVKDKTGKPISKAVIVLNEGIKVQTKEGGYFHVLLAPGVHNIIAIADGYQQQHSQVFVHHDAASSVVIVFDTDNRIFGLPRELVVTVSGATMSALILTACIIWCICSIKSNRHKDGFHRLRQHHDEYEDEIRMMSTGSKKSLLSHEFQDETDTEEETLYSSKH
B3: ROCK1_HUMAN (protein, UniProt Q13464 2-1354, looked up)
Rho-associated protein kinase …: STGDSFETRFEKMDNLLRDPKSEVNSDCLLDGLDALVYDLDFPALRKNKNIDNFLSRYKDTINKIRDLRMKAEDYEVVKVIGRGAFGEVQLVRHKSTRKVYAMKLLSKFEMIKRSDSAFFWEERDIMAFANSPWVVQLFYAFQDDRYLYMVMEYMPGGDLVNLMSNYDVPEKWARFYTAEVVLALDAIHSMGFIHRDVKPDNMLLDKSGHLKLADFGTCMKMNKEGMVRCDTAVGTPDYISPEVLKSQGGDGYYGRECDWWSVGVFLYEMLVGDTPFYADSLVGTYSKIMNHKNSLTFPDDNDISKEAKNLICAFLTDREVRLGRNGVEEIKRHLFFKNDQWAWETLRDTVAPVVPDLSSDIDTSNFDDLEEDKGEEETFPIPKAFVGNQLPFVGFTYYSNRRYLSSANPNDNRTSSNADKSLQESLQKTIYKLEEQLHNEMQLKDEMEQKCRTSNIKLDKIMKELDEEGNQRRNLESTVSQIEKEKMLLQHRINEYQRKAEQENEKRRNVENEVSTLKDQLEDLKKVSQNSQLANEKLSQLQKQLEEANDLLRTESDTAVRLRKSHTEMSKSISQLESLNRELQERNRILENSKSQTDKDYYQLQAILEAERRDRGHDSEMIGDLQARITSLQEEVKHLKHNLEKVEGERKEAQDMLNHSEKEKNNLEIDLNYKLKSLQQRLEQEVNEHKVTKARLTDKHQSIEEAKSVAMCEMEKKLKEEREAREKAENRVVQIEKQCSMLDVDLKQSQQKLEHLTGNKERMEDEVKNLTLQLEQESNKRLLLQNELKTQAFEADNLKGLEKQMKQEINTLLEAKRLLEFELAQLTKQYRGNEGQMRELQDQLEAEQYFSTLYKTQVKELKEEIEEKNRENLKKIQELQNEKETLATQLDLAETKAESEQLARGLLEEQYFELTQESKKAASRNRQEITDKDHTVSRLEEANSMLTKDIEILRRENEELTEKMKKAEEEYKLEKEEEISNLKAAFEKNINTERTLKTQAVNKLAEIMNRKDFKIDRKKANTQDLRKKEKENRKLQLELNQEREKFNQMVVKHQKELNDMQAQLVEECAHRNELQMQLASKESDIEQLRAKLLDLSDSTSVASFPSADETDGNLPESRIEGWLSVPNRGNIKRYGWKKQYVVVSSKKILFYNDEQDKEQSNPSMVLDIDKLFHVRPVTQGDVYRAETEEIPKIFQILYANEGECRKDVEMEPVQQAEKTNFQNHKGHEFIPTLYHFPANCDACAKPLWHVFKPPPALECRRCHVKCHRDHLDKKEDLICPCKVSYDVTSARDMLLLACSQDEQKKWVTHLVKKIPKNPPSGFVRASPRTLSTRSTANQSFRKVVKNTSGKTS
B4: HACD3_HUMAN (protein, UniProt Q9P035 1-362, looked up)
Very-long-chain …: MENQVLTPHVYWAQRHRELYLRVELSDVQNPAISITENVLHFKAQGHGAKGDNVYEFHLEFLDLVKPEPVYKLTQRQVNITVQKKVSQWWERLTKQEKRPLFLAPDFDRWLDESDAEMELRAKEEERLNKLRLESEGSPETLTNLRKGYLFMYNLVQFLGFSWIFVNLTVRFCILGKESFYDTFHTVADMMYFCQMLAVVETINAAIGVTTSPVLPSLIQLLGRNFILFIIFGTMEEMQNKAVVFFVFYLWSAIEIFRYSFYMLTCIDMDWKVLTWLRYTLWIPLYPLGCLAEAVSVIQSIPIFNETGRFSFTLPYPVKIKVRFSFFLQIYLIMIFLGLYINFRHLYKQRRRRYGQKKKKIH
B5: SF3A1_HUMAN (protein, UniProt Q15459 2-793, looked up)
Splicing factor 3A subunit 1: PAGPVQAVPPPPPVPTEPKQPTEEEASSKEDSAPSKPVVGIIYPPPEVRNIVDKTASFVARNGPEFEARIRQNEINNPKFNFLNPNDPYHAYYRHKVSEFKEGKAQEPSAAIPKVMQQQQQTTQQQLPQKVQAQVIQETIVPKEPPPEFEFIADPPSISAFDLDVVKLTAQFVARNGRQFLTQLMQKEQRNYQFDFLRPQHSLFNYFTKLVEQYTKILIPPKGLFSKLKKEAENPREVLDQVCYRVEWAKFQERERKKEEEEKEKERVAYAQIDWHDFVVVETVDFQPNEQGNFPPPTTPEELGARILIQERYEKFGESEEVEMEVESDEEDDKQEKAEEPPSQLDQDTQVQDMDEGSDDEEEGQKVPPPPETPMPPPLPPTPDQVIVRKDYDPKASKPLPPAPAPDEYLVSPITGEKIPASKMQEHMRIGLLDPRWLEQRDRSIREKQSDDEVYAPGLDIESSLKQLAERRTDIFGVEETAIGKKIGEEEIQKPEEKVTWDGHSGSMARTQQAAQANITLQEQIEAIHKAKGLVPEDDTKEKIGPSKPNEIPQQPPPPSSATNIPSSAPPITSVPRPPTMPPPVRTTVVSAVPVMPRPPMASVVRLPPGSVIAPMPPIIHAPRINVVPMPPSAPPIMAPRPPPMIVPTAFVPAPPVAPVPAPAPMPPVHPPPPMEDEPTSKKLKTEDSLMPEEEFLRRNKGPVSIKVQVPNMQDKTEWKLNGQVLVFTLPLTDQVSVIKVKIHEATGMPAGKQKLQYEGIFIKDSNSLAYYNMANGAVIHLALKERGGRKK
B6: DDX42_HUMAN (protein, UniProt Q86XP3 1-938, looked up)
ATP-dependent RNA helicase …: MNWNKGGPGTKRGFGFGGFAISAGKKEEPKLPQQSHSAFGATSSSSGFGKSAPPQLPSFYKIGSKRANFDEENAYFEDEEEDSSNVDLPYIPAENSPTRQQFHSKPVDSDSDDDPLEAFMAEVEDQAARDMKRLEEKDKERKNVKGIRDDIEEEDDQEAYFRYMAENPTAGVVQEEEEDNLEYDSDGNPIAPTKKIIDPLPPIDHSEIDYPPFEKNFYNEHEEITNLTPQQLIDLRHKLNLRVSGAAPPRPGSSFAHFGFDEQLMHQIRKSEYTQPTPIQCQGVPVALSGRDMIGIAKTGSGKTAAFIWPMLIHIMDQKELEPGDGPIAVIVCPTRELCQQIHAECKRFGKAYNLRSVAVYGGGSMWEQAKALQEGAEIVVCTPGRLIDHVKKKATNLQRVSYLVFDEADRMFDMGFEYQVRSIASHVRPDRQTLLFSATFRKKIEKLARDILIDPIRVVQGDIGEANEDVTQIVEILHSGPSKWNWLTRRLVEFTSSGSVLLFVTKKANAEELANNLKQEGHNLGLLHGDMDQSERNKVISDFKKKDIPVLVATDVAARGLDIPSIKTVINYDVARDIDTHTHRIGRTGRAGEKGVAYTLLTPKDSNFAGDLVRNLEGANQHVSKELLDLAMQNAWFRKSRFKGGKGKKLNIGGGGLGYRERPGLGSENMDRGNNNVMSNYEAYKPSTGAMGDRLTAMKAAFQSQYKSHFVAASLSNQKAGSSAAGASGWTSAGSLNSVPTNSAQQGHNSPDSPVTSAAKGIPGFGNTGNISGAPVTYPSAGAQGVNNTASGNNSREGTGGSNGKRERYTENRGSSRHSHGETGNRHSDSPRHGDGGRHGDGYRHPESSSRHTDGHRHGENRHGGSAGRHGENRGANDGRNGESRKEAFNRESKMEPKMEPKVDSSKMDKVDSKTDKTADGFAVPEPPKRKKSRWDS

The molecules below were run on KDM4A-I71AzF (assay: CASI: photo-crosslinking with HEK293T cell extracts, StrepTactin enrichment and LC-MS/MS proteomics). Settings: sheet "Final results but with 0.01".
Format: binding, human
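Also: lysates from HEK293T cells pretreated with a KDM4 inhibitor to raise proteome methylation, affinity-purified after ±UV, gel-resolved, trypsin-digested, with exclusive unique peptides per protein averaged per condition.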

First: B1
Second: B2
The “Fold change (+UV/-UV)” value of the first is lower: 0.6 for the first, 1 for the second.

Compared with B3, B4 is higher in “Fold change (+UV/-UV)” value: 0 for the first, 0.6667 for the second.

Going from B5 to B6, the “Fold change (+UV/-UV)” value rises from 0 to 0.6.
